Laboratory results as given in doi:10.1101/2025.07.08.663703 (2025).

B1: MBP-tagged Mre11-C49 peptide (Mre11 C-terminal residues 644-692) [S. cerevisiae] / HisSUMO-tagged Mer2 [S. cerevisiae] (parent complex)
chain 1: SYGLLNGRKTKTKTRPAASTKTASRRGKGRASRTPKTDILGSLLAKKRK
chain 2: MVARGRTDEISTDVSEANSEHSLMITETSSPFRSIFSHSGKVANAGALEESDKQILEWAGKLELESMELRENSDKLIKVLNENSKTLCKSLNKFNQLLEQDAATNGNVKTLIKDLASQIENQLDKVSTAMLSKGDEKKTKSDSSYRQVLVEEISRYNSKITRHVTNKQHETEKSMRCTQEMLFNVGSQLEDVHKVLLSLSKDMHSLQTRQTALEMAFREKADHAYDRPDVSLNGTTLLHDMDEAHDKQRKKSVPPPRMMVTRSMKRRRSSSPTLSTSQNHNSEDNDDASHRLKRAARTIIPWEELRPDTLESEL

Variants of: B1
Assay: co-expression Ni-NTA pulldown, anti-MBP immunoblot quantification; co-expressed in E. coli; at least seven independent samples; parent: 1; read off a plot

ratio to parent | Variant
~0.35 | chain 1 SYGLLNGRKTKTKTRPAASTKTASRRGKGRASRTPKTDIAGSALAKARK

Variants of: B1
Assay: as above
Remark: another data set of the same source

ratio to parent | Variant
~0.26 | chain 2 MVARGRTDEISTDVSEANSEHSLMITETSSPFRSIFSHSGKVANAGALEASDKAILAWAGALELESMELRENSDKLIKVLNENSKTLCKSLNKFNQLLEQDAATNGNVKTLIKDLASQIENQLDKVSTAMLSKGDEKKTKSDSSYRQVLVEEISRYNSKITRHVTNKQHETEKSMRCTQEMLFNVGSQLEDVHKVLLSLSKDMHSLQTRQTALEMAFREKADHAYDRPDVSLNGTTLLHDMDEAHDKQRKKSVPPPRMMVTRSMKRRRSSSPTLSTSQNHNSEDNDDASHRLKRAARTIIPWEELRPDTLESEL [chain 2 E50A, chain 2 Q54A, chain 2 E57A, chain 2 K61A]
